Source: patent US20170319688A1 (Genentech, published 2017)
Substitutions are numbered along the chain they refer to.

T1: cynomolgus RSPO3 (cynomolgus, UniProt A0A2K5UTQ7 22-273)
T1 construct: also called cyno RSPO3
T1 sequence: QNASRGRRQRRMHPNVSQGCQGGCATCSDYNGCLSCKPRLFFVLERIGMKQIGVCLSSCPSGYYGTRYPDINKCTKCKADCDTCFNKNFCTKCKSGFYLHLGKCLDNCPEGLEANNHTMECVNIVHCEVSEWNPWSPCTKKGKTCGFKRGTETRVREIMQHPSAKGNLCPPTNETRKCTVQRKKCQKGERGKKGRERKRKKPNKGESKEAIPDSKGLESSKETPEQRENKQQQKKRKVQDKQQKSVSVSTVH

T2: human RSPO3 (human, UniProt Q9BXY4 22-272)
T2 construct: Recombinant human RSPO3 protein (Genentech); also called huRSPO3; hRSPO3
T2 sequence: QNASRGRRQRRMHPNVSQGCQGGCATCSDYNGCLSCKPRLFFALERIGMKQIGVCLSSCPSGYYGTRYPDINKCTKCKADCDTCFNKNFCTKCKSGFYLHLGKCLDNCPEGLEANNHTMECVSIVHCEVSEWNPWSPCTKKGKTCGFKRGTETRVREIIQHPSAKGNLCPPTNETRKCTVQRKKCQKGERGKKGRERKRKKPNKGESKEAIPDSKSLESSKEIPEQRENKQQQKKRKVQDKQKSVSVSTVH

T3: murine RSPO3 (R&D Systems Cat. No. 4120-RS/CF) (murine, UniProt Q2TJ95 22-277, limits assumed)
T3 construct: also called mouse RSPO3
T3 sequence (looked up): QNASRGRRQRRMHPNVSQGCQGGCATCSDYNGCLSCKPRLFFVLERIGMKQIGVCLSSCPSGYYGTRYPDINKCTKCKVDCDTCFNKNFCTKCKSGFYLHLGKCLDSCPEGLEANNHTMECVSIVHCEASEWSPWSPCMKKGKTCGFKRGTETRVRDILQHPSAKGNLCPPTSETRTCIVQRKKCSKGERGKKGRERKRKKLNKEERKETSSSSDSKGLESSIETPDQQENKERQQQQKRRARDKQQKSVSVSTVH

B1: hu4A6.L4H2 (antibody, V domains shown)
VH: EVQLVESGGGVVQPGRSLRLSCAASGFTFSDYDMAWVRQAPGKGLEWVATIIYDGSRTYYRDSVKGRFTISRDNSKNTLYLQMNSLRAEDTAVYYCAAHDRSFDYWGQGTMVTVSS
VL: DIQMTQSPSSLSASVGDRVTITCLASEDISNDLVWYQQKPGKAPKLLIYAASRLQDGVPSRFSGSGFGTDFTLTISSLQPEDFATYYCQQSYKYLPTFGQGTKLEIK
notes: CDR graft only (L4, H2); also called humanized 4A6
B2: hu11C10.L5H1 (antibody, V domains shown)
VH: B1 VH with A98T, R101K, S102T
VL: DIQLTQSPSSLSASVGDRVTITCRASEDIYSDLAWYQQKPGKAPKLLIYDVNSLIHGVPSRFSGSGSGTDFTLTISSLQPEDFATYYCQQYDNYPNTFGQGTKLEIK
notes: CDR graft light chain L5 with H1; also called humanized 11C10
B3: hu15F3.L4H2 (antibody, V domains shown)
VH: B1 VH with T58A, Y60F, R61G, K65R, A97T
VL: B1 VL with A25V, L33F, F67S, L95P
notes: CDR graft only (L4, H2); also called humanized 15F3
B4: chimeric 4A6 (antibody, V domains shown)
VH: EVQLVESGGGSVQPGRSLKVSCAASGFTFSDYDMAWVRQAPKKGLEWVATIIYDGSRTYYRDSVKGRFTLSRDNTKSTLCLQMDSLRSEDTATYYCAAHDRSFDYWGQGIMVTVSS
VL: DIQMTQSPASLSASLGETVSIECLASEDISNDLVWYQQKSGKSPQLLIYAASRLQDGVPSRFSGSGFGTRFSLKISGMQPEDEADYFCQQSYKYLPTFGAGTKLGLK
notes: Chimeric counterpart of hu4A6 with the rat 4A6 variable domains
B5: chimeric 15F3 (antibody, V domains shown)
VH: B4 VH with S11L, V20L, T58A, Y60F, R61G, K65R, L70V, C80Y, A97T, I110V
VL: B4 VL with A25V, L33F, F67S, K74R, D85E, L95P, G105E
notes: Chimeric counterpart with the rat 15F3 variable domains
B6: chimeric 11C10 (antibody, V domains shown)
VH: B4 VH with S11L, V20L, L70I, D73A, T75A, C80Y, A98T, R101K, S102T, I110V
VL: DIQMTQSPASLSASLGETVTIECRASEDIYSDLAWYQQKPGNSPQLLIYDVNSLIHGVPSRFSGSGSGTQFSLKINNLQSEDVASYFCQQYDNYPNTFGAGTKLELK
notes: Chimeric counterpart with the rat 11C10 variable domains
B7: anti-RSPO3 antibody 5D6 (WO2015/058132) (antibody, V domains shown)
VH: EVQLQESGPSLVKPSQTLSLTCSVTGDSITSGYWNWIRKFPGNKFEYMGYISYSGKTYQNPSLKSRISITRDTSKNQYHLQLNSVTTEDTATYYCATYYGYGGPWFAYWGQGTLVTVSA
VL: DIVLTQSPSSMYASLGERVTITCKASQDIDSYLSWFQQKPGKSPKTLIYLTNRLVDGVPSRFSGSGSGQDYSLTISSLEYEDMGIYYCLHYDEFPLTFGAGTKLEIK

What was measured:
Test in all cases: SPR (BIAcore T200), RSPO3 immobilized, antibody injected, 25 C, 1:1 Langmuir
[1] = target: T1, cynomolgus RSPO3
[2] = target: T2, human RSPO3
[3] = target: T3, murine RSPO3 (R&D Systems Cat. No. …)

Row | Kd [1] [nM] | koff [1] [s⁻¹] | kon [1] [M⁻¹ s⁻¹] | Kd [2] [nM] | koff [2] [s⁻¹] | kon [2] [M⁻¹ s⁻¹] | Kd [3] [nM] | koff [3] [s⁻¹] | kon [3] [M⁻¹ s⁻¹] | Binder
1 | 0.247 | 5.95e-05 | 241000 | 0.434 | 8.47e-05 | 195000 | 0.441 | 8.08e-05 | 183000 | B1
2 | 1.75 | 0.00121 | 695000 | 3.01 | 0.00145 | 480000 | 3.22 | 0.00138 | 429000 | B2
3 | 0.466 | 0.000116 | 248000 | 0.839 | 0.000164 | 196000 | 0.775 | 0.000147 | 190000 | B3
4 | 0.174 | 3.36e-05 | 194000 | 0.363 | 5.85e-05 | 161000 | 0.337 | 5.22e-05 | 155000 | B4
5 | 0.576 | 0.000121 | 210000 | 0.845 | 0.000151 | 179000 | 0.926 | 0.000156 | 169000 | B5
6 | 1.52 | 0.000963 | 633000 | 2.67 | 0.00113 | 425000 | 2.76 | 0.00107 | 388000 | B6
7 | 0.697 | 0.000321 | 461000 | 0.485 | 0.000127 | 261000 | 0.913 | 0.000326 | 357000 | B7
